Measurements from patent US20260166139A1.
Where “and” joins values, the source holds several entries; their conditions need not be identical. Equal entries are not always repeated. Blank lines part the entries; values can stand above or below the binder they belong to.

What was measured:
[1] = target: murine CTLA4 (murine) (UniProt P09793); assay: ELISA on coated CTLA4, source Mouse
[2] = target: murine CTLA4 (murine) (UniProt P09793); assay: ELISA, coat murine CTLA4 0.5 ug/ml; antibody 0.1 ug/ml
[3] = target: murine CTLA4 (murine) (UniProt P09793); assay: ELISA, coat murine CTLA4 0.5 ug/ml; antibody 0.001 ug/ml
[4] = target: murine CTLA4 (murine) (UniProt P09793); assay: ELISA, coat murine CTLA4 0.5 ug/ml; antibody 1 ug/ml
[5] = target: murine CTLA4 (murine) (UniProt P09793); assay: ELISA, coat murine CTLA4 0.5 ug/ml; antibody 0 ug/ml (blank)
[6] = target: murine CTLA4 (murine) (UniProt P09793); assay: ELISA, coat murine CTLA4 0.5 ug/ml; antibody 0.3 ug/ml
[7] = target: murine CTLA4 (murine) (UniProt P09793); assay: ELISA, coat murine CTLA4 0.5 ug/ml; antibody 0.003 ug/ml
[8] = target: murine CTLA4 (murine) (UniProt P09793); assay: ELISA, coat murine CTLA4 0.5 ug/ml; antibody 0.01 ug/ml
[9] = target: murine CTLA4 (murine) (UniProt P09793); assay: ELISA on coated CTLA4, source taken as Mouse; second unlabelled line under 8D2 / Mouse; the run in which 10D1 gave […] and 11.2.1 was not measured
[10] = target: murine CTLA4 (murine) (UniProt P09793); assay: ELISA, coat murine CTLA4 0.5 ug/ml; antibody 0.03 ug/ml
[11] = target: murine CTLA4 (murine) (UniProt P09793); assay: ELISA on coated CTLA4, source taken as Mouse

- EC50 [1]: 0.025 nM
B1: humanized antibody 8D2H1L1 (antibody, V domains shown)
VH: EVQLVESGGGLVQPGGSMRLSCAASGFTFSDNWMNWVRQAPGKGLEWLAQIRNKPYNYETYYSDSVKGRFTISRDDSKNSVYLQMNSLKTEDTGVYYCTAQFAYWGQGTLVTVSS
VL: DIQMTQSPSSLSASVGDRVTITCRTSENIYGGLNWYQRKQGKSPKLLIYGATNLASGMSSRFSGSGSGTDYTLKISSLHPDDVATYYCQNVLRSPFTFGSGTKLEIK

- absorbance at 450 nm [2]: 2.75 and 2.72
- EC50 [1]: 0.015 nM
- absorbance at 450 nm [3]: 0.358 and 0.355
- absorbance at 450 nm [4]: 2.82 and 2.68
- absorbance at 450 nm [5]: 0.063 and 0.052
- absorbance at 450 nm [6]: 2.81 and 2.76
- absorbance at 450 nm [7]: 0.784 and 0.76
- absorbance at 450 nm [8]: 1.61 and 1.56
- EC50 [9]: 0.071 nM
- absorbance at 450 nm [10]: 2.34 and 2.38
B2: monoclonal antibody 8D2 (antibody, V domains shown)
VH: EVKLDETGGGLVQPGRPMKLSCVASGFTFSDNWMNWVRQSPEKGLEWLAQIRNKPYNYETYYSDSVKGRFTISRDDSKSSVYLQMNNLRGEDMGIYYCTAQFAYWGQGTLVTVSA
VL: DIQMTQSPASLSASVGETVTITCGTSENIYGGLNWYQRKQGKSPQLLIFGATNLADGMSSRFSGSGSGRQYSLKISSLHPDDVATYYCQNVLRSPFTFGSGTKLEI

- absorbance at 450 nm [2]: 2.8 and 2.69
- EC50 [1]: 0.015 nM
- EC50 [11]: 0.085 nM
- absorbance at 450 nm [3]: 0.315 and 0.321
- absorbance at 450 nm [4]: 2.67 and 2.77
- absorbance at 450 nm [5]: 0.053 and 0.046
- absorbance at 450 nm [6]: 2.69 and 2.73
- absorbance at 450 nm [7]: 0.662 and 0.674
- absorbance at 450 nm [8]: 1.4 and 1.45
- absorbance at 450 nm [10]: 2.31 and 2.26
B3: 8D2 recombinant antibody, 8D2(Re) (antibody, V domains shown)
VH: B2 VH
VL: B2 VL
